Assay results taken from PMC4794788, “Cell‐free synthesis of isotopically labelled peptide ligands for the functional characterization of G protein‐coupled receptors” (FEBS Open Bio, 2015).
Entries after “also recorded” stand apart in the source; their conditions may differ.

Target: T1, human complement 5a receptor (C5aR) (Homo sapiens, UniProt P21730)
T1 construct: 10x His (N); FLAG (N); StrepII (C); made in house; host or cells: Sf9 insect cells (recombinant baculovirus, pOET5 / flashBAC); membrane preparation
T1 sequence (P21730 1-350): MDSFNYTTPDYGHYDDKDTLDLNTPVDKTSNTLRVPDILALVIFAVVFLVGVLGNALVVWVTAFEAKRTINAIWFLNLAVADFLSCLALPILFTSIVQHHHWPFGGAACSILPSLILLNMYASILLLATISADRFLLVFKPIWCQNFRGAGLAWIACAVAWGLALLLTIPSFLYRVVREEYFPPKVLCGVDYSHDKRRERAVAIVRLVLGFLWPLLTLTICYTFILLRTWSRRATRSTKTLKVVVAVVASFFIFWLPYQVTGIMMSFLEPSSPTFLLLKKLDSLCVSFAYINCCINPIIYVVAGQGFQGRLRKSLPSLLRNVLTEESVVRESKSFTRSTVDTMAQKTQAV
Experiment: Specific binding of [^3H]‐C5a^CF to C5aR (optimization of translation and assay conditions)
Description: For the cell‐free synthesis of radioligands one amino acid was replaced with a tritiated variant depending on its abundance in the respective ligand. Complement 5a was produced in the presence of 1 μM (FM)/2.1 μM (RM) L‐[2,3‐^3H]‐proline (specific activity 55 Ci·mmol^−1, Perkin Elmer, Boston, USA). […] The cell‐free reaction was initiated omitting the labelled amino acid and incubated at 30 °C, 100 rpm for 3 h. The reaction mix was removed from the D‐tube™ dialyzer and incubated with 0.2 mL Ni‐NTA magnetic agarose beads suspension (Qiagen) per mL reaction mix for 10 min to remove undesired side products translated with endogenously present amino acids from the S30 extract. The reaction mix was removed from the magnetic beads, supplemented with 0.25 mM L‐histidine to account for potential losses in the IMAC (immobilized metal ion affinity chromatography) step and the tritium‐labelled amino acid. The feeding mix was discarded and replaced with a fresh mix containing the labelled amino acid. Reactions were incubated at 30 °C in a water bath under constant shaking overnight.
For purification of tritium‐labelled complement 5a ([^3H]‐C5a^CF), reaction and feeding mixes were pooled and applied to a 1 mL HisTrap FF column (GE Healthcare) equilibrated in buffer C^C5a using a peristaltic pump. The column was washed with 4 CV buffer C1^C5a, 4 CV buffer C2^C5a and eluted in 4 CV buffer D^C5a. […] Buffer exchange to buffers C^C5a or C^ET−1 was performed by repeated concentration and dilution in a 3 kDa MWCO concentrator (Amicon) and protein concentration was calculated using the specific activity of incorporated [^3H]‐Pro or [^3H]‐Phe residues.
The complement 5a receptor was coproduced with Gαi2 in Sf9 insect cells. The cDNA encoding the human complement 5a receptor flanked by an N‐terminal 10x His and FLAG tag and a C‐terminal StrepII tag was cloned into the pOET5 transfer vector (Oxford Expression Technologies, Oxford, UK). pOET5 contains two expression cassettes, the receptor is expressed under the control of a polyhedron promoter; Gαi2 expression is regulated by a p10 promoter. […]

B1: [^3H]‐C5a^CF: cell‐free‐synthesized tritium‐labelled complement 5a with N‐terminal hexa‐histidine tag; contains three proline residues (protein, UniProt P01031 678-751, looked up)
C5a anaphylatoxin: TLQKKIEEIAAKYKHSVVKKCCYDGACVNNDETCEQRAARISLGPRCIKAFTECCVVASQLRANISHKDMQLGR
modifications: C5a anaphylatoxin tritium label
First translation trials, produced with DsbA and IMAC purified, no pretranslation step
  Specific binding to the C5aR: only low and nonsignificant binding to the C5aR; also recorded: specific binding is low and nonsignificant
Pretranslation step plus NaCl in assay and wash buffer
  Specific binding to the C5aR: further increases the detected specific binding
With pretranslation step to remove endogenous proline
  Specific binding to the C5aR: binding specifically to the C5aR and displaying low nonspecific background; also recorded: strongly increased (dark grey bar) and statistically significant
